Assays:
COLO205 = experiment: STn expression on CRC line by flow cytometry using anti-STn antibodies; type: cell-based; conditions: detected using mSIA103
Description: (§1) Mouse antibodies were characterized for in vitro and in vivo efficacy in breast, colon and ovarian cancer models. The antibodies were used to identify CRC cell lines that express STn on the surface. Five CRC lines were incubated in vitro and grown to confluency. % STn expression was determined by flow cytometry using anti-STn antibodies. Approximately 30-70% of cultured SW403, COL0205 and LS174T cells naturally expressed STn on the surface (as detected using mSIA103), while HT29 and RKO had very little to no detectable STn (as detected using hSIA101) on their cell surface (see Table 6).

LS174T = experiment: as above; type: cell-based; conditions: detected using mSIA103
Description: as §1

SW403 = experiment: as above; type: cell-based; conditions: detected using mSIA103
Description: as §1

[1] = system: CRC Tissue Microarray (TMA) cores; experiment: CRC Tissue Microarray staining for STn with and without neuraminidase; type: binding
Description: Further, a CRC Tissue Microarray (TMA) (NBP2-30214; Novus Bio, Littleton, Colo.) was stained for STn expression. The array consists of 59 cores with and without a neuraminidase (sialidase) enzyme treatment. Neuraminidase specifically cleaves terminal sialic acids and destroys STn antigen present on the tissue.

staining on normal colon ([1]; 8 cores): restricted to crypt and surface mucosa
staining after neuraminidase treatment ([1]; 250 mU/mL neuraminidase, all 45 positive cores): abolished
neoplastic cores with some level of positive membrane staining ([1]; out of the 51 neoplastic cores on the TMA): 45
B1: mSIA103: mouse IgG2a anti-STn antibody, VH SEQ ID NO: 5, VL SEQ ID NO: 6; variable domains from 3F1 IgG1 antibodies (antibody, V domains shown)
VH: QVQLQQSDAELVKPGASVKISCKASGYTFTDHAIHWVKQKPEQGLDWIGYISPGNGDIKYNEKFKDKVTLTADKSSSTACMHLNSLTSEDSAVYFCKRSLLALDYWGQGTTLTVSS
VL: DIVMTQSHKFMSTSVGDRVSITCKASQDVGTNIAWYQQKPGRSPKVLIYSASTRHTGVPDRFTGSGSGTDFTLTISNVQSEDLTDYFCQQYSSFPLTFGVGTKLELK
modifications: mouse IgG2a constant regions
notes: variable domains from 3F1 IgG1 antibodies
% STn expression (COLO205): 67.7%
% STn expression (LS174T): 69.9%
% STn expression (SW403): 30.0%
